From the supplement of paper PMC9170038

Test system: K4 kissing-loop RNA reporter
Test: apparent KD of K4 kissing-loop reporter; higher = weaker reporter binding
Conditions: Eterna round: R107
Experimental: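 RNA-MaP round R107: designed RNA switches with theophylline, tryptophan, arginine or FMN aptamers are transcribed on-chip within common flanks. They are titrated with a labelled K4 kissing-loop RNA reporter in RNA-MaP buffer (100 mM Tris pH 7.5, 80 mM KCl, 4 mM MgCl2), without ligand or with the indicated ligand. Median apparent KD per design.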

[1] = input ligand: theophylline 20 uM
[2] = input ligand: tryptophan 2.4 mM
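Note: bound reporter read as fluorescence of individual clusters on recovered sequencing chips by microscopy, with normalized cluster intensities fitted with a binding model.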

| Sequence | apparent KD of K4 kissing-loop reporter (input ligand: FMN 200 uM) | apparent KD of K4 kissing-loop reporter (input ligand: arginine 13.2 mM) | apparent KD of K4 kissing-loop reporter (input ligand: none) | apparent KD of K4 kissing-loop reporter [1] | apparent KD of K4 kissing-loop reporter [2] |
| --- | --- | --- | --- | --- | --- |
| GCAUGACGGUAAGGAUAUAGAUAAUCCUUAUAUACGUCGAGUGAUGUUCGAUGUGCCAAGGCACAUCUAGAAGGUACUGUUAGGU [Same State FMN B GF 18] | 772 nM | 760 nM | 1020 nM | 725 nM | 873 nM |
| GCCGUACGCAUGGAUACCAGACAACCAUUCUAAAUUUUGUGUCCGGUAGUGAUGUUACCUGUCCCUUGGCAGCCAUGCGUACGGC | 306 nM | 261 nM | 319 nM | 317 nM | 338 nM |
| GCCGUACGCAUGGAUACCAGAUCUAGACGCUUAGUGAUGUUAAGUAAUCUGGUUAGACCGAUCCCUUGGCAGCCAUGCGUACGGC | 270 nM | 199 nM | 229 nM | 203 nM | 200 nM |
| GCCGUACGCAUGGAUACCAGAUGGCACUAUAAUCUACCAGAGUGAUGUUCUGGCCUGCCCAUCCCUUGGCAGCCAUGCGUACGGC | 293 nM | 199 nM | 287 nM | 171 nM | 206 nM |
| GCCGUACGCAUGGAUACCAGCAAGUAUAUAUGCUAGUGAUGUUAGCGCUAUGCGAUGCGGUGCCCUUGGCAGCCAUGCGUACGGC | 129 nM | 85.2 nM | 105 nM | 106 nM | 102 nM |
| GCCGUACGCAUGGAUACCAGCAAUUAUGCUCGUAUCCUAGUGAUGUUAGUGGCGAAUAUUUGCCCUUGGCAGCCAUGCGUACGGC | 1080 nM | 841 nM | 1160 nM | 691 nM | 936 nM |
| GCCGUAGAUGGAAGGAGCGUGGUGGACUCGUGAAGUGAUGUUUCAAGUCGUUAUGCCCAACCACAGGUAGGUCGCCAUCUACGGC | 277 nM | 204 nM | 270 nM | 231 nM | 251 nM |
| GCCGUAGAUGGAAGGAGCGUGGUUAAUGUAAGUGAUGUUUACGAGGUUAACAAUUGACCGCCACAGGUAGGUCGCCAUCUACGGC | 84.6 nM | 65.9 nM | 74 nM | 70.5 nM | 70.5 nM |
| GCCGUAGAUGGAAGGAGCGUGUCAAAGUGAUGUUUUGAUUAACUCCCUACGGGAUAGAUGACACAGGUAGGUCGCCAUCUACGGC | 65.2 nM | 79.3 nM | 86.9 nM | 115 nM | 65.3 nM |
| GCCGUAGAUUGAAGGAGCGAGUAGGCUCACUUGCGAAGUGAAUAGCAGAGUGAUGUUCUGUCUCAGGUAGGUCGCAAUCUACGGC | 701 nM | 172 nM | 388 nM | 436 nM | 397 nM |
| GCCGUAGAUUGAAGGAGCGCCUUCUUACCAAGAGUGAUGUUCUUUGGUACCAUGUUCAGCAGGCAGGUAGGUCGCAAUCUACGGC | 195 nM | 142 nM | 188 nM | 155 nM | 169 nM |
| GCCGUAGAUUGAAGGAGCGGCACCCACGGCUCUAACACCUAAGUGAUGUUUAGGUAGUGGUGCCAGGUAGGUCGCAAUCUACGGC | 144 nM | 153 nM | 124 nM | 133 nM | 131 nM |
| GCCGUAGAUUGAAGGAGCGGCAUUAACGAUGUUCUGGUAGUGAUGUUACCUCAGCAGACAUGCCAGGUAGGUCGCAAUCUACGGC | 72.5 nM | 74.6 nM | 93.6 nM | 76.6 nM | 77 nM |
| GCCUGGGCACGAAGGAGCGCCGUGACAGGUUACUGCCGUGGGCAGUGAUGUUGCUCAAUCUGGCAGGUAGGUCGCGUGCCCAGGC | 137 nM | 86 nM | 184 nM | 107 nM | 121 nM |
| GCGCGGCUCAGUGAUGUUGAGCCUCGGAAACGAGGACCGGUACGGCCGCCACUCGUCCGCGCAGCUGAGGCAAAAGCCUCGGCAA [Omei KL Tryp A SS B v1] | 284 nM | 276 nM | 319 nM | 334 nM | 261 nM |
| GCGCGUCAUGGCGGCGGUGACUACGCCGAUACCAGCCGGGAAACCGGCCCUUGGCAGCGGCGCGCCGGAGUGAUGUUCCGACAGA [#2 Exclusion - Theophylline A Attempt #4 (HarryS)] | 226 nM | 275 nM | 275 nM | 370 nM | 214 nM |
| GCGCGUGUUAAAGGAUAUAGCAGGUGAUACAAGAAAGUGAGUGAUGUUUAUGUAGAUGAUGAUAUGUUAGAAGGUUAACAAGCGC [abcdefghijklmnopq] | 778 nM | 606 nM | 847 nM | 739 nM | 605 nM |
